The values that follow come from publication PMC12846365.

The term stoichiometry N denotes a count of units in the complex or per binding partner.

Assay [1] deals with GTi divalent immunogen, Fab-Fab-crosslinked version (HIV-1 strain BG505). Briefly: native gel or EMSA. On the technique in general: Mobility shift assays separate free from complexed probe on a gel.
Assay [2] has as its target GTii divalent immunogen, Fab-Fab-crosslinked version (HIV-1 strain BG505). Briefly: native gel or EMSA.
Assay [3] has as its target GTiii divalent immunogen, Fab-Fab-crosslinked version (HIV-1 strain BG505). Briefly: native gel or EMSA.
Assay [4] has as its target wtA32. Briefly: not stated; KD of wtA32 in Table 1, no footnote and no method told.
Assay [5] deals with 2mutVRC01. Briefly: SPR; OpenSPR-XT; C-terminally Strep-tagged antibody immobilised on Strep-Tactin XT over biotin sensor/streptavidin/biotinylated Strep-Tag peptide; analyte monovalent gpCore or ICs; 1:1 fit model; apparent kinetic values. On the technique in general: SPR reads the build-up and loss of mass on a sensor chip optically.
Assay [6] concerns the target 3mutA32. The assay is described as above.
Assay [7] concerns the target 7mutVRC01. The assay is described as above.
The target in assay [8] is 3 plasmid ICs (as tested with N6). Briefly: native gel or EMSA.
For assay [9], the target named is 48d.cl IC, fusion version (gpCore + 48d heavy chain fusion, Fab-Fab-crosslinked K126C) (HIV-1 strain BG505). Briefly: native gel or EMSA.

Chain of 2mutVRC01 (light, as listed by the source, chain 2 of 2, other chains not shown): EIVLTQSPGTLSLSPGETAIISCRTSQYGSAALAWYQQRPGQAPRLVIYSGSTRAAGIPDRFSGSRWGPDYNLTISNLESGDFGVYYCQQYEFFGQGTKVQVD
Chain of 3mutA32 (heavy, as listed by the source, chain 1 of 2): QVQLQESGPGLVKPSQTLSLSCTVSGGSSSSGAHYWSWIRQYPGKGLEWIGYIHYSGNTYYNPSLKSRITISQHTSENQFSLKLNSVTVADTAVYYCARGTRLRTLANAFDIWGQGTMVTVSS
Chain of 3mutA32 (light, as listed by the source, chain 2 of 2): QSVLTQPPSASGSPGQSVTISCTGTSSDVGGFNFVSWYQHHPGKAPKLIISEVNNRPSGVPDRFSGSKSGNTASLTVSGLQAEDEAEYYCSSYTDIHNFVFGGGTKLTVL
Chain of wtA32 (heavy, as listed by the source, chain 1 of 2): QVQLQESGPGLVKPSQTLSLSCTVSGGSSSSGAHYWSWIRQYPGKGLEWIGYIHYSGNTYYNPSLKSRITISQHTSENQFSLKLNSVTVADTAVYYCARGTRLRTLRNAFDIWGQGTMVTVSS
Chain of wtA32 (light, as listed by the source, chain 2 of 2): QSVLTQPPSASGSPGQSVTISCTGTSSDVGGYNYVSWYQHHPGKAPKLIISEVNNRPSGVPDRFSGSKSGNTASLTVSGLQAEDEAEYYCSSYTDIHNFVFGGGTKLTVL
Chain of 7mutVRC01 (heavy, as listed by the source, chain 1 of 2): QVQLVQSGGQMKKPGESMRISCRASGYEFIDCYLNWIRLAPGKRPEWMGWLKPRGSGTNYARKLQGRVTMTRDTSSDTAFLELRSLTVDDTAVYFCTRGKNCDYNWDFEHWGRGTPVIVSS
Chain of 7mutVRC01 (light, as listed by the source, chain 2 of 2): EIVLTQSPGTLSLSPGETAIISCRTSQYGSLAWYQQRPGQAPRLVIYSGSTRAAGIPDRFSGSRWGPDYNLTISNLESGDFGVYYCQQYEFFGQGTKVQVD

With “monomeric VRC01 IgM unmutated common ancestor (UCA) (antibody)”, the figures for the Kd in assay [1], in assay [2] and in assay [3] were 0.8 to 1 µM, 0.06 µM and 0.025 µM, respectively.

“gpCore (core gp120 of strain BG505), monovalent (domain or fragment)”: the Kd is 0.0004 µM in assay [4], 0.2 µM in [5], 0.2 µM in assay [6] and 7 µM in [7].

Regarding N6 (antibody), the stoichiometry N in assay [8] and in [9] was 1 in each case.
